Test results reported in article PMC3835915, “Diversification of Fungal Specific Class A Glutathione Transferases in Saprotrophic Fungi” (PLoS ONE, 2013).

Substrate: S=C=NCCc1ccccc1
Assay: purified protein
Assay type: biochemical, Phanerodontia chrysosporium
Conditions: 5 mM GSH, pH 6.5, 2% acetonitrile

B1: PcGSTFuA1 (Phanerodontia chrysosporium) (protein)
chain: MAQPIVFYDIPSNERIKHSPWSPNTWKIRYALNYKGLKYKTEWVEYPDIAGVVQKLGGKPTEKTPDGRDHYTLPVIYDPNTKKVVEDSAAIAKYLDETYPDTPKLFPAGTDAFQAAFLDFAWPVLGFPVFMLVILDTANSLLPRSHDYFRSTREQKFGKKLEELATEEEWAKVEAGLAKLKGYLDANGKGNDLLLMGAQGGITYSDIQIASFFVWAKIIWGEGSEKWKRLISLHDGKWAQFYAQFTKFEQVDV
notes: full length, untagged, pET-3d, E. coli BL21(DE3) pSBET; Ala inserted after Met1; dimer; primers encode N-term MAQPIVF, C-term EQVDV
Km: 119.0 ± 14.4 µM
kcat: 8.515 ± 0.267 s⁻¹
